From publication PMC4288329, “Characterization of the inositol monophosphatase gene family in Arabidopsis” (Frontiers in Plant Science, 2015)

B1: IMPL1 (AtIMPL1) (Arabidopsis thaliana) (protein)
chain: TTGTISPAHLLEVVELAAKTGAEVVMEAVNKPRNITYKGLSDLVTDTDKASEAAILEVVKKNFSDHLILGEEGGIIGDSSSDYLWCIDPLDGTTNFAHGYPSFAVSVGVLYRGNPAAASVVEFVGGPMCWNTRTFSATAGGGALCNGQKIHVSKTDAVERALLITGFGYEHDDAWSTNMELFKEFTDVSRGVRRLGAAAVDMCHVALGIAESYWEYRLKPWDMAAGVLIVEEAGGAVTRMDGGKFSVFDRSVLVSNGVLHPKLLERIAPATENLKSKGIDFSLWFKPEDYHTEL
notes: plasmid pAtIMPL1H
B2: IMPL2 (AtIMPL2) (Arabidopsis thaliana) (protein)
chain: LSDTELDRFAAVGNALADASGEVIRKYFRKKFDIVDKDDMSPVTIADQMAEEAMVSIIFQNLPSHAIYGEEKGWRCKEESADYVWVLDPIDGTKSFITGKPVFGTLIALLYKGKPILGLIDQPILKERWIGMNGRRTKLNGEDISTRSCPKLSQAYLYTTSPHLFSEEAEKAYSRVRDKVKVPLYGCDCYAYALLASGFVDLVIESGLKPYDFLALVPVIEGAGGTITDWTGKRFLWEASSSAVATSFNVVAAGDSDIHQQALESLEWH
notes: plasmid pAtIMPL2H

Key:
Assay in all cases: malachite green phosphate release assay, Michaelis-Menten fit
Format in all cases: biochemical, Arabidopsis thaliana
[1] = substrate: O=P(O)(O)O[C@H]1O[C@H](CO)[C@H](O)[C@H](O)[C@H]1O; settings: 50 mM Tris pH 9, 3 mM MgCl2, 22°C in table note (25°C in methods), substrate 0-1 mM, value approximated
Source text: (§1) malachite green phosphate release assay, Michaelis-Menten fit on IMPL1 (AtIMPL1)

[2] = substrate: O=P(O)(O)O[C@@H]1[C@H](O)[C@H](O)[C@@H](O)[C@H](O)[C@H]1O; settings: 50 mM Tris pH 9, 3 mM MgCl2, 22°C in table note (25°C in methods), substrate 0-1 mM, substrate inhibition above 1 mM
Source text: as §1

[3] = substrate: N[C@H](COP(=O)(O)O)Cc1c[nH]cn1; settings: 50 mM Tris-Cl pH 7.5, 2 mM MgCl2, 22°C in table note (25°C in methods), substrate 0-1 mM
Source text: malachite green phosphate release assay, Michaelis-Menten fit on IMPL2 (AtIMPL2)

Protein | Km [1] [µM] | kcat [1] [s⁻¹] | kcat/Km [1] [M⁻¹ s⁻¹] | Km [2] [µM] | kcat [2] [s⁻¹] | kcat/Km [2] [M⁻¹ s⁻¹] | Km [3] [µM] | kcat [3] [s⁻¹] | kcat/Km [3] [M⁻¹ s⁻¹]
B1 | 450 ± 60 | 2.4 ± 1.3 | 5300 ± 500 | 180 ± 3 | 0.6 ± 0.1 | 3300 ± 100 | – | – | –
B2 | – | – | – | – | – | – | 180 ± 5 | 1.3 ± 0.2 | 7900 ± 200
